How the values were obtained:
[1] = molecular target: His-tagged human AXL extracellular domain (recombinant) (human) (UniProt P30530); experiment: SPR classical sandwich assay (IBIS MX96): 100 nM analyte over AXL-His ECD held by surface-captured 22995; white cell = sandwiching
[2] = molecular target: His-tagged human AXL extracellular domain (recombinant) (human) (UniProt P30530); experiment: SPR classical sandwich assay (IBIS MX96): 100 nM analyte over AXL-His ECD held by surface-captured 22883; grey cell = blocked
[3] = molecular target: chimeric mouse AXL ECD with human Ig1 domain, His-tagged (human; mouse) (UniProt Q00993); experiment: BLI (Octet QK384), His-tagged protein captured on Anti-Penta-HIS sensors, antibody at saturating conditions; white cell
[4] = molecular target: His-tagged human AXL extracellular domain (recombinant) (human) (UniProt P30530); experiment: SPR classical sandwich assay (IBIS MX96): 100 nM analyte over AXL-His ECD held by surface-captured 23203-1; white cell = sandwiching
[5] = molecular target: His-tagged human AXL extracellular domain (recombinant) (human) (UniProt P30530); experiment: BLI (Octet QK384), His-tagged protein captured on Anti-Penta-HIS sensors, antibody at saturating conditions; row HuAXL_ECD, the reference of the normalization
[6] = molecular target: His-tagged human AXL extracellular domain (recombinant) (human) (UniProt P30530); experiment: SPR classical sandwich assay (IBIS MX96): 100 nM analyte over AXL-His ECD held by the surface-captured Control antibody (f2); white cell = sandwiching
[7] = molecular target: His-tagged human AXL extracellular domain (recombinant) (human) (UniProt P30530); experiment: SPR classical sandwich assay (IBIS MX96): 100 nM analyte over AXL-His ECD held by surface-captured 10G5 analogue; grey cell = blocked (self)
[8] = molecular target: His-tagged human AXL extracellular domain (recombinant) (human) (UniProt P30530); experiment: SPR classical sandwich assay (IBIS MX96): 100 nM analyte over AXL-His ECD held by surface-captured YW327.6S2 IgG1-LALA analogue; white cell = sandwiching

Sequence of His-tagged human AXL extracellular domain (recombinant) (human) (P30530 26-451): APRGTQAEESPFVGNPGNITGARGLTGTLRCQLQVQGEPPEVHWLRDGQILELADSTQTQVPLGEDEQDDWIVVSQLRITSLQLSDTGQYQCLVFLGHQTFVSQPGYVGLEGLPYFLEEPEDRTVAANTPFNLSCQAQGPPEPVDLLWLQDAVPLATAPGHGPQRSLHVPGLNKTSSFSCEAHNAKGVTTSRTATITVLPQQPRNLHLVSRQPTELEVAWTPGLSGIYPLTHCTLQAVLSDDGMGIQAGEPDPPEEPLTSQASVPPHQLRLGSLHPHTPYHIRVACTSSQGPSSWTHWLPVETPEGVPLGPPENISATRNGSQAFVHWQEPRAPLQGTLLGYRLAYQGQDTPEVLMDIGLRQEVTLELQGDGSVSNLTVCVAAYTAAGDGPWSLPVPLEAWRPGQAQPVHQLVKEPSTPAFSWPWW
Sequence of chimeric mouse AXL ECD with human Ig1 domain, His-tagged (human; mouse) (Q00993 other isoform, or with tags, fused parts or gaps mutant limits assumed): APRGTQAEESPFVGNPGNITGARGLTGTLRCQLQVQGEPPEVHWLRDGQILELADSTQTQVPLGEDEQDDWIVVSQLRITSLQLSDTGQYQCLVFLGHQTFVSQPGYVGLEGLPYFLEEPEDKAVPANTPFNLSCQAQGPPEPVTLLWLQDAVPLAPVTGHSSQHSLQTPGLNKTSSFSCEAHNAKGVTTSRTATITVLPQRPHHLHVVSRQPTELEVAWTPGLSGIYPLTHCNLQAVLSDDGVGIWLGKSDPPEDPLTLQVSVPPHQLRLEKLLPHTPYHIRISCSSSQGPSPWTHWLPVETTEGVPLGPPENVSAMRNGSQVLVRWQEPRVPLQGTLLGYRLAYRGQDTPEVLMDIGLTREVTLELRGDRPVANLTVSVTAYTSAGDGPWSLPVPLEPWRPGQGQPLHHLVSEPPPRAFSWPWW

normalized SPR sandwich response [1]: 1.3
normalized SPR sandwich response [2]: -0.1
BLI response (nm) normalized to full-length human AXL-ECD [3]: 0.9
normalized SPR sandwich response [4]: 1.2
BLI response (nm) normalized to full-length human AXL-ECD [5]: 1
normalized SPR sandwich response [6]: 1.2
normalized SPR sandwich response [7]: -0.2
normalized SPR sandwich response [8]: 1.6
B1: 10G5 analogue (BerGenBio) (antibody, from another filing, V domains shown)
VH: QVQLQQSGAELVRPGASVKLSCKASGYSFTDFYINWVRQRPGQGLEWIARIFPGGDNTYYNEKFKGKATLTAEESSSTAYIQLSSLTSEDSAVYFCARRGLYYAMDYWGQGISVTVSS
VL: DVLMTQTPLSLPVSLGDQASISCRSSQSLVHSNGIPYLHWYLQKPGQSPKLLIYRVSNRFSGVPDRFSGSGSGTDFTLKISRVEAEDLGVYFCSQGTHVPPTFGGGTKLEIK

From US20210269532A1
